Measurements taken from patent US9434716B2, “Antigen binding proteins” (Glaxo Group Limited, priority 2011, dated 2016).
“Also recorded” adds a separate entry of the source.

Experiments:
[1] = biological target: T1, native human SAP (Homo sapiens, UniProt P02743); assay: Double immunodiffusion in agarose gel; assay type: binding; conditions: isolated pure human SAP and whole human serum
T1 construct: against both isolated pure human SAP and whole human serum; from tissue; host or cells: whole human serum, and isolated pure human SAP
T1 sequence (P02743 20-223): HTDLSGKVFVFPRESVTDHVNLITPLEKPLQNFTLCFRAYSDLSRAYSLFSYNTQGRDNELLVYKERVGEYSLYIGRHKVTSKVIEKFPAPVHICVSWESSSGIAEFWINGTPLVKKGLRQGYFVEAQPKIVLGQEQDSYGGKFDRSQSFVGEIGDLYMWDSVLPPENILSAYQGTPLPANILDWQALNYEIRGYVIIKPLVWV

[2] = biological target: T2, human SAP (Homo sapiens, UniProt P02743); assay: Binding of mouse monoclonals to immobilised human SAP in vitro
T2 construct: from tissue; host or cells: natural human SAP, purified
T2 sequence (P02743 20-223): as above
Excerpt: SAP-E and SAP-K are from two groups of anti-SAP monoclonals, each group having been tested separately for their binding to human SAP in vitro.
SAP-K was selected from among the 6 different, most avidly binding, mouse IgG2a monoclonals, derived by standard techniques from immunization with purified human SAP and a conventional fusion to produce hybridomas which were cloned by routine methods. […] This was the case regardless of whether the human SAP had been directly immobilised on plastic surfaces by non-specific adherence or by covalent attachment, or by the specific calcium dependent binding of SAP to immobilised ligands, whether amyloid fibrils or the small molecule ligand, phosphoethanolamine. SAP-K also bound well to directly immobilised SAP in the presence or absence of calcium, and if the SAP had previously been complexed with CPHPC and then covalently ‘fixed’ in the decameric SAP-CPHPC complex (Pepys, M. B. et al (2002) Targeted pharmacological depletion of serum amyloid P component for treatment of human amyloidosis. Nature, 417: 254-259; Kolstoe, S. E. et al (2009) Molecular dissection of Alzheimer's disease neuropathology by depletion of serum amyloid P component. Proc. Natl. Acad. Sci. USA, 106: 7619-7623). SAP-E also bound well to human SAP in all these different configurations.

[3] = biological target: T2, human SAP; assay: Biacore (BIAcoreX), human SAP covalently immobilised on the chip; assay type: binding; conditions: mean and SD of 3 replicate measurements
[4] = system: mice with systemic AA amyloidosis; assay: SAP-K in clearing amyloid deposits, mouse AA amyloidosis model (Example 15); assay type: in vivo; conditions: lower doses of 1 mg, 0.5 mg and 0.1 mg per mouse
Experimental: AA amyloidosis was induced and confirmed in wild-type C57BL/6 mice as detailed in Example 10 above. After loading the amyloid deposits with human SAP also detailed in Example 10, groups of mice were treated with 50 mg per mouse of total IgG as the whole IgG fraction (batch 2866) of the sheep polyclonal anti-human SAP antiserum providing a dose of 7 mg of actual anti-SAP antibody, […], and, as a negative control, isolated purified monoclonal mouse IgG2a antibody specific for an unrelated human antigen and unreactive with either human SAP or any murine antigen. All mice were killed 17 days later for estimation of amyloid load by Congo red staining.

[5] = biological target: T2, human SAP; assay: Competition ELISA with chimeric anti-SAP mAb; assay type: binding; conditions: human SAP coated at 5 μg/mL; purified murine mAb
Excerpt: A constant concentration of chimeric anti-SAP mAb was mixed with serial diluted (1:1) amounts of mouse anti-SAP mAbs. Plates were washed and the amount of chimeric antibody bound to the immobilised human SAP was detected using goat anti-human Kappa Light chain peroxidase conjugate (Sigma, A7164). The ELISA was developed using O-phenylenediamine dihydrochloride (OPD) peroxidase substrate (Sigma, P9187).

[6] = biological target: T2, human SAP; assay: Western blotting and fragment epitope mapping (CNBr, chymotrypsin); assay type: binding
Excerpt: This is consistent with the kinetic stability and resistance to denaturation of SAP (Manning, M. and Colón, W. (2004) Biochemistry, 43: 11248-11254).
B, SDS-PAGE analysis of SAP cleaved with CNBr. […] These were precisely confirmed by mass spectrometry. […] C, SDS-PAGE analysis of SAP digested with chymotrypsin. Left panel: Coomassie blue stain; lane 1, untreated control SAP; lane 2, SAP after chymotrypsin digestion, showing the expected major fragments corresponding to residues 1-140 and 145-204. These were precisely confirmed by mass spectrometry. Right panel: Western blot with SAP-E showing intense staining of intact untreated SAP in lanes 1 (500 ng loaded) and 2 (100 ng), and also residual intact SAP in lanes 3 and 4 which contained the chymotrypsin digested SAP at different loadings. Very weak binding of SAP-E to the residue 1-140 fragment is seen only in lane 3 which was most heavily loaded. […] D, Sequence comparison between human SAP (h) and mouse SAP (m) for residues 136-147. Top panel, differences indicated above by residues shown in black in the murine sequence. Bottom panel, position of this extended loop with 140Y at its apex shown in white in the 3D subunit structure of human SAP. The different residues in the murine sequence are shown in black. The grey spheres represent the calcium atoms bound in the ligand binding pocket.

[7] = biological target: T2, human SAP; assay: Human SAP binding ELISA, SAP-K and SAP-E hybridoma antibodies; conditions: 1 μg/mL lower density coating of human SAP
Experimental: 1 μg/mL or 5 μg/mL human SAP was directly immobilised onto an ELISA plate and blocked with 1% BSA/TBS plus 0.05% TWEEN20. Anti-SAP antibodies from purified material were titrated across the plate. Bound antibody was detected by treatment with a horse-radish peroxidase (HRP)-conjugated rabbit-anti-mouse IgG antibody (Dako, P0260). The ELISA was developed using O-phenylenediamine dihydrochloride (OPD) peroxidase substrate (Sigma, P9187).

[8] = biological target: T2, human SAP; assay: Biacore kinetics, human SAP captured on immobilised O-phosphoethanolamine; assay type: binding; conditions: CM5 chip, calcium; bivalent analyte model; 25° C.; for comparison only, avidity effect
Experimental: O-phosphoethanolamine was immobilised on a Biacore CM5 chip by primary amine coupling in accordance with the manufacturer's instructions. Human SAP was then captured on the surface in the presence of calcium chloride, in order to replicate in the Biacore system in vitro, the precise orientation of SAP molecules bound to amyloid fibrils in vivo. Anti SAP antibodies were then passed over this surface at 256, 64, 16, 4, 1 nM and a binding sensorgrams obtained. Analysis was carried out at 25° C. using 4% BSA, 10 mM Tris, 140 mM NaCl, 2 mM CaCl2, 0.05% surfactant P20, 0.02% Na N3, pH 8.0 as running buffer. […] Data generated were double referenced with a buffer injection over the human SAP surface and analyzed using the bivalent analyte model in the Biacore T100 evaluation software.

B1: SAP-K: mouse IgG2a monoclonal anti-human SAP antibody, VH SEQ ID NO:17, VL SEQ ID NO:19 (antibody, V domains shown)
VH: QVQLQQPGAELIKPGASVKLSCKASGYTFTSYWMHWVKQRPGQGLEWIGMIHPNSVNTNYNEKFKSKATLTVDKSSSTAYMQLNSLTSEDSAVYYCARRNDYYWYFDVWGTGTTVTVSS
VL: DIVMTQSQKFMSTSVGDRVSVTCKASQNVNSNVAWYQQKPGQSPKALIYSASYRYSGVPDRFTGSGSGTDFTLTITNVQSEDLAEYFCQQCNNYPFTFGSGTKLEIK
Q: For B1, which “binding to native human SAP (immunoprecipitation)” value [1] is on record?
A: Its value is “bound apparently equally well to native human SAP”.

Q: What about the “binding to human SAP in vitro” value ([2]; compared within the group of monoclonals) of the same molecule?
A: The value was “strongest binding to SAP, within their groups; also recorded: greatest binding to immobilised human SAP”.

Q: And the “binding to immobilised human SAP” value ([2]; human SAP sparsely available, plates coated with 1 μg/ml)?
A: The value was “much more SAP-K than SAP-E became bound”.

Q: And the ka [3]?
A: Its ka is 3.18 ± 5 × 10^4 M^−1 sec^−1.

Q: And the kd [3]?
A: Its kd is 1.7 ± 0.9 × 10^−5 sec^−1.

Q: What about the “effect on amyloid deposits” value [4] of the same molecule?
A: Its value is “no significant effect”.

Q: And the “competition with SAP-E chimera” value [5]?
A: The value was “no competition”.

Q: And the “binding to native human SAP in western blotting” value ([6]; after agarose gel electrophoresis in physiological buffers)?
A: Its value is “bound”.

Q: What about the “binding to human SAP in western blotting from reduced SDS-PAGE” value ([6]; denatured human SAP) of the same molecule?
A: Its value is “only recognises native human SAP”.

Q: And the “binding to the immobilised human SAP” value [7]?
A: Its value is “greater binding than the SAP-E”.

Q: What about the ka [8] of the same molecule?
A: The ka was 300000 M⁻¹ s⁻¹.

Q: What about the kd [8] of the same molecule?
A: Its kd is 0.000219 s⁻¹.
